B1: E3 ubiquitin-protein ligase SIAH1 (Homo sapiens), Q8IUQ4 (parent)
chain: MSRQTATALPTGTSKCPPSQRVPALTGTTASNNDLASLFECPVCFDYVLPPILQCQSGHLVCSNCRPKLTCCPTCRGPLGSIRNLAMEKVANSVLFPCKYASSGCEITLPHTEKADHEELCEFRPYSCPCPGASCKWQGSLDAVMPHLMHQHKSITTLQGEDIVFLATDINLPGAVDWVMMQSCFGFHFMLVLEKQEKYDGHQQFFAIVQLIGTRKQAENFAYRLELNGHRRRLTWEATPRSIHEGIATAIMNSDCLVFDTSIAQLFAENGNLGINVTISMC
partner: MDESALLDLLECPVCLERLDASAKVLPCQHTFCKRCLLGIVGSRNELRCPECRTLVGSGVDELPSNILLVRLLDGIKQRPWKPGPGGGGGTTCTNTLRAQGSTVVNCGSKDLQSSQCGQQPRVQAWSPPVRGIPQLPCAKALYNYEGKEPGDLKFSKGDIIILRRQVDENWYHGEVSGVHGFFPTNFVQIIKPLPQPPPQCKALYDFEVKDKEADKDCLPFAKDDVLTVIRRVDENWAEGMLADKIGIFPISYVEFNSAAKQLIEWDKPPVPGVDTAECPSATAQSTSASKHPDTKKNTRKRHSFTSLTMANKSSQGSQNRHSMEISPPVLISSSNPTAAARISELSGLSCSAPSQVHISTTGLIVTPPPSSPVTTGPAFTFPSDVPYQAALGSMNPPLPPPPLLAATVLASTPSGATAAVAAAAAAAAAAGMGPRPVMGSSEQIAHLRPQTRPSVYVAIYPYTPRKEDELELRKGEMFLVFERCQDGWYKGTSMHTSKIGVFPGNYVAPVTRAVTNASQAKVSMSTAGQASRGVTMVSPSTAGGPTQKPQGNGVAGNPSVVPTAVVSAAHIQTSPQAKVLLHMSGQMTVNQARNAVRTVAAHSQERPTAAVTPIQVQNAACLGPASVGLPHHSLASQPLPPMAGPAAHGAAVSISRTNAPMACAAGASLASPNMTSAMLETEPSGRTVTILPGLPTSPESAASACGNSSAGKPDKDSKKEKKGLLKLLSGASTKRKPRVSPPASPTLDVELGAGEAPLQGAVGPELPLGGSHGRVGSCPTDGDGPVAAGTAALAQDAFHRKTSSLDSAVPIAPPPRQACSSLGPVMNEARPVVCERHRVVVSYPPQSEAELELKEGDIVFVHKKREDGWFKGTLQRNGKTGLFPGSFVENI

Variants of: B1
Conditions: with sh3r1_mouse Sh3rf1, Q69ZI1

Variant | effect of a mutation on the interaction
MSRQTATALPTGTSKCPPSQRVPALTGTTASNNDLASLFESPVSFDYVLPPILQCQSGHLVCSNCRPKLTCCPTCRGPLGSIRNLAMEKVANSVLFPCKYASSGCEITLPHTEKADHEELCEFRPYSCPCPGASCKWQGSLDAVMPHLMHQHKSITTLQGEDIVFLATDINLPGAVDWVMMQSCFGFHFMLVLEKQEKYDGHQQFFAIVQLIGTRKQAENFAYRLELNGHRRRLTWEATPRSIHEGIATAIMNSDCLVFDTSIAQLFAENGNLGINVTISMC [C41S;C44S] | decreasing interaction
